What was measured:
[1] = biological target: T1, SdpB(26-536) (Caulobacter crescentus NA1000, UniProt A0A0H3C791 26-536, biotinylated using NHS-PEG4-Biotin (for BLI)); assay: BLI
T1 chain: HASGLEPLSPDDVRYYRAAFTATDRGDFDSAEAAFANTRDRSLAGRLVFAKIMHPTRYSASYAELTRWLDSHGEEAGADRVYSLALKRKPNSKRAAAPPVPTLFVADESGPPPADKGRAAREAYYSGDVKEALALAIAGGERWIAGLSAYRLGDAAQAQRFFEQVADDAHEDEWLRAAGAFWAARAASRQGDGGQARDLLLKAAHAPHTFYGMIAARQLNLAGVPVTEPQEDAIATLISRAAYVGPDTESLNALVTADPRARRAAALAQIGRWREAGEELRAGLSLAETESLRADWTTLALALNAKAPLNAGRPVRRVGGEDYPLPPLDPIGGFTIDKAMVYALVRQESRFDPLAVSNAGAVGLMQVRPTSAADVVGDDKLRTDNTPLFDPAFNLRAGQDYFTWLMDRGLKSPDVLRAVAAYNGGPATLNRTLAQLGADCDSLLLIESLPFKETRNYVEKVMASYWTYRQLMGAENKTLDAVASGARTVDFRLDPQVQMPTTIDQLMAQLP

[2] = biological target: T2, CrbA(371-451) (Caulobacter crescentus NA1000, UniProt A0A0H3C8K5 371-451, biotinylated using NHS-PEG4-Biotin (for BLI)); assay: BLI
T2 chain: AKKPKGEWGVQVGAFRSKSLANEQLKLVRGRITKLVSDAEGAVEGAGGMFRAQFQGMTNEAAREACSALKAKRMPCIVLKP

[3] = biological target: T3, His6-SdpA(21-699) (Caulobacter crescentus NA1000, UniProt A0A0H3C7P1 21-699, biotinylated using NHS-PEG4-Biotin (for BLI)); assay: BLI
T3 chain: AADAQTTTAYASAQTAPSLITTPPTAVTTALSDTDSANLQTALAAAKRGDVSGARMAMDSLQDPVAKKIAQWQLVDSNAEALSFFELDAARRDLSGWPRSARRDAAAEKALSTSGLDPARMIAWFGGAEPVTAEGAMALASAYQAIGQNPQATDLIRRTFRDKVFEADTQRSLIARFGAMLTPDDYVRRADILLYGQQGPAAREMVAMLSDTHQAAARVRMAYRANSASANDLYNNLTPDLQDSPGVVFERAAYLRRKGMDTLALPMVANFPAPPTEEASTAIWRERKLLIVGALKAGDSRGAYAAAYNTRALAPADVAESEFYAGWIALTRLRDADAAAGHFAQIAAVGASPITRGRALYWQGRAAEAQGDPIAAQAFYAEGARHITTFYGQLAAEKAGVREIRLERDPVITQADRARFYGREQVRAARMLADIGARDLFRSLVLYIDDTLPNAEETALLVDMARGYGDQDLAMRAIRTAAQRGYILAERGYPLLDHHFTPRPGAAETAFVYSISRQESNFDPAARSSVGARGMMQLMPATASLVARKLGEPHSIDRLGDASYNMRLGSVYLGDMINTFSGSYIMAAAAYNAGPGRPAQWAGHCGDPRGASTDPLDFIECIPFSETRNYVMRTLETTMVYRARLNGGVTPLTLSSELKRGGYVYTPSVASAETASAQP

[4] = biological target: T4, FtsN(51-266) (Caulobacter crescentus NA1000, UniProt B8GX61 51-266, biotinylated using NHS-PEG4-Biotin (for BLI)); assay: BLI
T4 chain: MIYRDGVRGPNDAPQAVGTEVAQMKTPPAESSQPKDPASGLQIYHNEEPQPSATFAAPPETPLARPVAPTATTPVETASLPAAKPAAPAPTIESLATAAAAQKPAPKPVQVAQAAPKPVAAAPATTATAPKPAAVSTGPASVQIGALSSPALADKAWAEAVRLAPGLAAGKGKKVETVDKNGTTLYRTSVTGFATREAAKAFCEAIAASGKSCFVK

[5] = biological target: T5, AmiC(35-395) (Caulobacter crescentus NA1000, UniProt A0A0H3C9I3 35-395, biotinylated using NHS-PEG4-Biotin (for BLI)); assay: BLI
T5 chain: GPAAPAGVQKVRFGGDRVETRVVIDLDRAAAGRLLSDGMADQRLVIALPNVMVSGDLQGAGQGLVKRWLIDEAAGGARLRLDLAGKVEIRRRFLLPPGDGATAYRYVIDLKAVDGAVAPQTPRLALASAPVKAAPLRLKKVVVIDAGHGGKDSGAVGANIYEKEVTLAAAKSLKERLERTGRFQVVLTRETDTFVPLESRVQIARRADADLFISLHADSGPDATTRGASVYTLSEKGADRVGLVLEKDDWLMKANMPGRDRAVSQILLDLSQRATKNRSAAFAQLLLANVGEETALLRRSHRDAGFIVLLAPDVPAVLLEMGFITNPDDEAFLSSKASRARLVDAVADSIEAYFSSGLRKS

[6] = biological target: SdpA, SdpB, AmiC, the SPOR domain of CrbA and the periplasmic region of FtsN; assay: BLI; biotinylated target immobilised on streptavidin (SAX) sensors, DipM as analyte at several concentrations; equilibrium shifts fitted to a one-site model; 50 mM HEPES/NaOH pH 7.2, 50 mM NaCl, 5 mM MgCl2, 0.1 mM EDTA, 10% glycerol, 10 µM BSA, 0.01% Triton X-100

B1: MAS-DipM(26-609)-His6 (natural protein)
chain: MASGQSGQRFTPNFPITQPAAPPPGETIQAQPGEAESLPRPTPIPVQSAPPIAQAELPPPAPVSTPAPAPQPVLRATPPRTVVTTTVTGPVVEVAGKPQVRVVESGDALDAIARGMGSTRAELVKLNDLEPPYRLKLGQKIKGPATTAKAYVVQTGDTMFAIAKRFNVTAAALAEENDLKSGAAIKKGQKLLLPDGYKDKGPIKTTQVIPGTPATMVAEAEPAPATTRPATPAATPSRPVRQPVSEETSEPATTSTTTLSVTGSVVTVAGPRQVHTVKSGDTLTAIARKFDMSVSELAEANKLDTEKPLKLGAKIKGPATTQKAYSVQTGDTLGEIAKRFNVSVKALAAENNLRATASLKKGQKIALPDGFRDKGPIRTTTTTRPATPPANTYARVDSSAAAASTPSSPVPYTPSGAAPRPSAPVAAQPITPPPSSGRTIIETAAAPTEAEIIASGKGKFAWPLRGDIISSFGVKGTGQRNDGLNIRAPQGTPVLSSADGEIAYAGNQVPTFGNLVLVKHADGWVTAYAHLSSTNVKMRQQVKQGEQLGTVGATGGVNEPQLHFEMRYAPTVKDKAKPVDPALVLPR
For B1, the Kd [1] was 3.5 µM, the Kd [2] was 46.3 µM and the Kd [3] was 12.1 µM. The Kd [4] was 20 µM, the Kd [5] was 18.3 µM and the Kd [6] was 3 to 46 µM.

Source: paper PMC10336132 (2023)
